Reference: paper PMC5524369

Tests used:
[1] = molecular target: Tamm-Horsfall protein (human) (UniProt P07911); assay: ELISA; wells coated with 25 μg/ml THP; CFH 10 to 250 μg/ml in 1% BSA/20 mM Tris/20 mM NaCl/0.05% Tween 20 (pH 7.5), overnight, 4°C; detected with goat anti-human CFH; fitted to B = (F × Cap)/(KD + F)
[2] = molecular target: Tamm-Horsfall protein (human) (UniProt P07911); assay: as above; remark: listed apart in the source
[3] = molecular target: Tamm-Horsfall protein (human) (UniProt P07911); assay: ELISA; wells coated with 25 μg/ml THP; C3b 1 to 250 μg/ml in 20 mM Tris/20 mM NaCl/0.05% Tween 20 (pH 7.5) without BSA, overnight, 4°C; detected with goat anti-human C3b; fitted to B = (F × Cap)/(KD + F)
C1q (Homo sapiens) = C1q (Homo sapiens) (UniProt P02745); conditions: cited from earlier work
[4] = molecular target: complement factor H (Homo sapiens) (UniProt P08603); assay: SPR; conditions: cited from earlier work
complement factor H (Homo sapiens), sequence (P08603 19-1231): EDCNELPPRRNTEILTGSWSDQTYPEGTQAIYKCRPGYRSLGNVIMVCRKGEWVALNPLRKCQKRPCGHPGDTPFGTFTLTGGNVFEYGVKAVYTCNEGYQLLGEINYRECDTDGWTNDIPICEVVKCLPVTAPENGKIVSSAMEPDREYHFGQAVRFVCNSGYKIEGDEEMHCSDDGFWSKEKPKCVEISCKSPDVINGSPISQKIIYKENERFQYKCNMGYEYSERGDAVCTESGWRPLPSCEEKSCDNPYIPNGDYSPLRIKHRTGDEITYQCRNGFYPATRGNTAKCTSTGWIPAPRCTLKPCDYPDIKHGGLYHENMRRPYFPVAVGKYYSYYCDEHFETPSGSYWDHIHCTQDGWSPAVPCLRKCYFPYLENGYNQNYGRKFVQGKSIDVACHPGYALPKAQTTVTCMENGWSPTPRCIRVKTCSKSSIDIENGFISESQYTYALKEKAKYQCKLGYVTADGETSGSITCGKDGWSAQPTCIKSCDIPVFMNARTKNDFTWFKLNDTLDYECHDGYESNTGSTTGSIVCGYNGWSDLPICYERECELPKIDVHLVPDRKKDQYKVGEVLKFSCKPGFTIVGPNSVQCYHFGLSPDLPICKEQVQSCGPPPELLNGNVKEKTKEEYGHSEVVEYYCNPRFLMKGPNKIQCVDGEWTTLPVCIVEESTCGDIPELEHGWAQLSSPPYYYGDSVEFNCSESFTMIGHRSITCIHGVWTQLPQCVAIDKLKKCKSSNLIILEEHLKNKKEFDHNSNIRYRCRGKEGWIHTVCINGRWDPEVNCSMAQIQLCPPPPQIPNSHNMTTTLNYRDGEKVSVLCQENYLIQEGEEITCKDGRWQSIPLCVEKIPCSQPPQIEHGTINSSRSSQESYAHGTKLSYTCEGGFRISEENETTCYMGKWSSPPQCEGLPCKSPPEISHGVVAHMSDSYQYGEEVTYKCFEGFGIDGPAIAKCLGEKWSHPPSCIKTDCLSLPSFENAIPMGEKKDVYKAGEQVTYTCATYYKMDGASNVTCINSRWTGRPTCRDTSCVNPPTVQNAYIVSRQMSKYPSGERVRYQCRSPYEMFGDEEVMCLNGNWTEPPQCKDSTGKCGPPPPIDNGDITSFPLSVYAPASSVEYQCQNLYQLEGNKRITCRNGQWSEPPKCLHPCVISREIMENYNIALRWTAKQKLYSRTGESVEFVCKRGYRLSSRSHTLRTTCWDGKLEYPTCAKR

complement factor H, sequence (P08603 19-1231): as above
C1q (Homo sapiens), sequence (P02745 23-245, chain 1 of 3): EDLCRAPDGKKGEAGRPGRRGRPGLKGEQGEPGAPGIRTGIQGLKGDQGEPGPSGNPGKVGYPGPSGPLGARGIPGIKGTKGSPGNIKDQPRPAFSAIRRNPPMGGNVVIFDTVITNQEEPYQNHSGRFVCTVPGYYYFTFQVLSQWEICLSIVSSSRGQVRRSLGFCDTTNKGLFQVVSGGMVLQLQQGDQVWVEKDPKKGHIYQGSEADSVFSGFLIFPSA
C1q (Homo sapiens), sequence (P02746 28-253, chain 2 of 3, further chain): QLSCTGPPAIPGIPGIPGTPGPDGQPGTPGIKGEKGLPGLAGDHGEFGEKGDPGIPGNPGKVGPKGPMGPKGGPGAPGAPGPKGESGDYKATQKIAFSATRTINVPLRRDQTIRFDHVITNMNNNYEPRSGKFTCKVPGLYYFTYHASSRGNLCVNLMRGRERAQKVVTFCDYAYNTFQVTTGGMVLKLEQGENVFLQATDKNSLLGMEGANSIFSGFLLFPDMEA
C1q (Homo sapiens), sequence (P02747 29-245, chain 3 of 3, further chain): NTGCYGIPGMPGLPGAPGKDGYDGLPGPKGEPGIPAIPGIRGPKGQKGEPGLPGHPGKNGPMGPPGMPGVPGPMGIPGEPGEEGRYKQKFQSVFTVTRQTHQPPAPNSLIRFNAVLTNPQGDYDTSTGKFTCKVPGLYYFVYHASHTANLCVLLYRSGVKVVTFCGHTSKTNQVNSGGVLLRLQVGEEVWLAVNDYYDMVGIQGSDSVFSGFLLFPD

“complement factor H (from UniProt P08603 19-1231) (natural protein)” gave a Kd [1] of 1000 nM and a Kd [2] of 1200 nM.

Work on “complement 3b (from UniProt P01024 749-1663; P01024 749-1663) (natural protein)” yielded a Kd [3] of 50 nM.

In the case of THP (uromodulin) (from UniProt P07911), the Kd (C1q (Homo sapiens)) is listed as 1 nM and the Kd [4] is listed as 4000 nM.
